In test [1] the target is T1, human CD73 on the cell surface (tumor cells endogenously expressing human CD73; CHOS-human CD73) (human, UniProt P21589 27-549).
T1 construct: The endogenous CD73 of the human tumor lines (MDA-MB-231, Calu6, SK-ME-S, H2030, SKLU1, BT549, A375, HCC44) is treated as the same protein
T1 sequence: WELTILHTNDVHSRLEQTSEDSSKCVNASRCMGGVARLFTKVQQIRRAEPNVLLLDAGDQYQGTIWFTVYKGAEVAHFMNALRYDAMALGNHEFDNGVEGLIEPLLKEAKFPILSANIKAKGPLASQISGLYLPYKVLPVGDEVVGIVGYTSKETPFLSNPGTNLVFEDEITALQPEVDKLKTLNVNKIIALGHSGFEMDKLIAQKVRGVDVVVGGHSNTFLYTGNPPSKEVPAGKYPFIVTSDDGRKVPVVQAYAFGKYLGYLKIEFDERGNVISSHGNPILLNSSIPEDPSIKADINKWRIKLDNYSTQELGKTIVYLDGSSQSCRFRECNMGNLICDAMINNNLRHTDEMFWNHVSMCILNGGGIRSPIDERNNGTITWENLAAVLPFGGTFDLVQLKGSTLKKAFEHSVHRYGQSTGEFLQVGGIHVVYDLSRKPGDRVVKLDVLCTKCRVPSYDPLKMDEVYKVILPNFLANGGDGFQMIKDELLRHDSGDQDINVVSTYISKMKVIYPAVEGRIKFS
Description: full-field cell scanning analyzer (Celigo), percent fluorescent cells, A375 cells endogenously expressing human CD73. As for the experimental part:
(§1) Experimental method: 10,000 cells were plated on a flat-bottom 96-well plate with 100 μL DMEM+10% FBS/well, cultured overnight so that the cells adhered to the well, and the supernatant was discarded on the next day. Serial 3-fold dilutions of antibody for 8 points were performed by diluting ⅓ of the total volume (100 μL) in 200 μL DMEM. 100 μL of the diluted antibody was added to each well of the cell plate (the supernatants of fused clones or subclones were used for screening), 100 μL of DMEM was added to the corresponding negative control well, and incubation was performed at room temperature for 1 hour. After the supernatant was discarded, 100 μL of secondary antibody (DyLight488 goat anti-mouse IgG (Abcam, Cat. No. ab97015)) was added to each well at a concentration of 5 μg/mL (diluted in DMEM), and incubation was performed for 0.5 hours at room temperature. After staining, the supernatant was discarded, followed by washing once with PBS+2% FBS, then 100 μL of PBS+2% FBS was added to each well, and then reading was performed on analyzer. A full-field cell scanning analyzer (Nexcelom Company, model Celigo® Image Cytometer) was used to measure the reading of the experimental plate. […] The binding effect of the anti-CD73 antibody to the CD73-expressing cell line was determined according to the percentage. […]

Test [2] addresses T1, human CD73 on the cell surface (tumor …). Nature of the test: full-field cell scanning analyzer (Celigo), percent fluorescent cells, BT549 cells endogenously expressing human CD73. As for the experimental part: as §1
The target of another test is T2, murine CD73 on 4T1 cells (murine, UniProt Q61503 29-551).
T2 construct: whole, on cells; also called 4T1 (endogenously expressing murine CD73)
T2 sequence (looked up): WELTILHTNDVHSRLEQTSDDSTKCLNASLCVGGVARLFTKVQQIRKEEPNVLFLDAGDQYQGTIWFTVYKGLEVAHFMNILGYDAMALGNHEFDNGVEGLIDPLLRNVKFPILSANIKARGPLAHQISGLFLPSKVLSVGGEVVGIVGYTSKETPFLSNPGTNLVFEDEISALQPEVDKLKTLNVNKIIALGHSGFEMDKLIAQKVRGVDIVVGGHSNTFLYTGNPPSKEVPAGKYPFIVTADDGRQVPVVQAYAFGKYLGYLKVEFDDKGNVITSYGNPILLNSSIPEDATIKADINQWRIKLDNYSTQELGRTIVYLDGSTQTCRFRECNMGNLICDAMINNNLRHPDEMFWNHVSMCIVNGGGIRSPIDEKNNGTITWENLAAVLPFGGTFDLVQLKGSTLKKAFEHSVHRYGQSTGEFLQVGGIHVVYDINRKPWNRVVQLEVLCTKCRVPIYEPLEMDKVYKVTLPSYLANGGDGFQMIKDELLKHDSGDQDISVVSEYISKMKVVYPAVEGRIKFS
Nature of the test: cell binding on adherent 4T1 cells, DyLight488 goat anti-mouse IgG, full-field cell scanning analyzer (Celigo), % fluorescent cells. The procedure: as §1

B1: murine antibody 13D12 (antibody, V domains shown)
VH: DVKLQESGPAMVKPSQSLSLTCTVTGYSITSGYDWHWIRLFPGNKLEWMGYISYSGYTDYSPSLKSRISITHDTSKNHFFLKLHSVTTEDTATYYCTRGDHSYAMDYWGQGTSVTVS
VL: DIVMTQSHKFMSTSVGDRVSITCKASQAVGTAVAWYQQKPGQSPKLLIYWASSRHTGVPDRFTGSRSGTDFTLTISSVQSEDLADYFCQQYSSYPLTFGGGTNLEIK
notes: Mouse monoclonal antibody purified from hybridoma supernatant; also called mouse monoclonal antibody 13D12
What is called EC50 is the concentration needed to bring the measured effect to its halfway point. High values mean lower potency in that assay, low ones higher potency in that assay. As to B1, the results for the concentration for a half-maximal effect (EC50) in test [1] and in test [2] were 2.43 µg/mL and 1.78 µg/mL, respectively. Besides, the binding result with murine CD73 on 4T1 cells is “no binding”.

The values above are taken from patent US20230312739A1 (BIOTHEUS, published 2023).
